According to paper PMC11796402, “Overcoming barriers for investigating nickel-pincer nucleotide cofactor-related enzymes” (mBio, 2024):

How the values were obtained:
[1] = substrate: C[C@H](O)C(=O)O; assay: purified protein; format: biochemical, Lactiplantibacillus plantarum; details: PBS pH 7.4, 35°C, 2.13 µM enzyme, racemization to D-lactate
[2] = substrate: C[C@@H](O)C(=O)O; assay: purified protein; format: biochemical, Lactiplantibacillus plantarum; details: PBS pH 7.4, 35°C, 2.13 µM enzyme, racemization to L-lactate

B1: LarALp (Lactiplantibacillus plantarum WCFS1) (protein)
chain: VAIDLPYDKRTITAQIDDENYAGKLVSQAATYHNKLSEQETVEKSLDNPIGSDKLEELARGKHNIVIISSDHTRPVPSHIITPILLRRLRSVAPDARIRILVATGFHRPSTHEELVNKYGEDIVNNEEIVMHVSTDDSSMVKIGQLPSGGDCIINKVAAEADLLISEGFIESHFFAGFSGGRKSVLPGIASYKTIMANHSGEFINSPKARTGNLMHNSIHKDMVYAARTAKLAFIINVVLDEDKKIIGSFAGDMEAAHKVGCDFVKELSSVPAIDCDIAISTNGGYPLDQNIYQAVKGMTAAEATNKEGGTIIMVAGARDGHGGEGFYHNLADVDDPKEFLDQAINTPRLKTIPDQWTAQIFARILVHHHVIFVSDLVDPDLITNMHMELAKTLDEAMEKAYAREGQAAKVTVIPDGLGVIVK
notes: co-expressed with L. plantarum LarB, LarC, LarE in E. coli BL21(DE3) (Duet, pAT035/pAT038)
Km [1]: 32 ± 10 mM
kcat [1]: 179 ± 25 s⁻¹
Km [2]: 23 ± 12 mM
kcat [2]: 185 ± 12 s⁻¹
